Measurements reported in US12312411 (Takeda / Millennium, dated 2025).
Changes are numbered by the printed parent chain.

B1: CD38 targeting reference molecule #1 (CD38TR1) scFv fused to Shiga toxin A subunit (CD38TR1-SLTA) (scFv)
chain: MKEFTLDFSTAKTYVDSLNVIRSAIGTPLQTISSGGTSLLMIDSGSGDNLFAVDVRGIDPEEGRFNNLRLIVERNNLYVTGFVNRTNNVFYRFADFSHVTFPGTTAVTLSGDSSYTTLQRVAGISRTGMQINRHSLTTSYLDLMSHSGTSLTQSVARAMLRFVTVTAEALRFRQIQRGFRTTLDDLSGRSYVMTAEDVDLTLNWGRLSSVLPDYHGQDSVRVGRISFGSINAILGSVALILNCHHHASAVAAEFPKPSTPPGSSGGAPDIQMTQSPSSLSASVGDRVTITCKASEDIYNRLTWYQQKPGKAPKLLISGATSLETGVPSRFSGSGSGTDFTFTISSLQPEDIATYYCQQYWSNPYTFGQGTKVEIKGGGGSQVQLQESGPGLVRPSQTLSLTCTVSGFSLTSYGVHWVRQPPGRGLEWIGVMWRGGSTDYNAAFMSRLNITKDNSKNQVSLRLSSVTAADTAVYYCAKSMITTGFVMDSWGQGSLVTVSS
B2: CD38TM5 formatted into human IgG1 (antibody, V domains shown)
VH: EVQLLESGGGLVQPGGSLRLSCAASGFTFSDYYMNWIRQAPGKGLEWVSSISSSSSYIYYADSVKGRFTISRDNSKNTLYLQMNSLRAEDTAVYYCATEGPYYLYGFDIWGQGTLVTVSS
VL: QSVLTQPPSASGTPGQRVTISCSGSSSNIGSNYVYWYQQLPGTAPKLLIYGNSNRPSGVPDRFSGSKSGTSASLAISGLRSEDEADYYCQSYDNTLSGVIFGGGTKLTVLG
B3: CD38TM2 formatted into human IgG1 (antibody, V domains shown)
VH: EVQLLESGGGLVQPGGSLRLSCAASGFTFSSYWMHWVRQAPGKGLEWVSAISGSGGGTFYADSVKGRFTISRDNSKNTLYLQMNSLRAEDTAVYYCAREGETSFGLDVWGQGTLVTVSS
VL: B2 VL with S31G, G51R, S53N, N54Q, N94S, T95S, G98V, V99S, I100V
B4: CD38TM1 formatted into human IgG1 (antibody, V domains shown)
VH: EVQLLESGGGLVQPGGSLRLSCAASGFTFSDYYMSWVRQAPGKGLEWVSAISGSGGSTYYADSVKGRFTISRDNSKNTLYLQMNSLRAEDTAVYYCAREHSNYFYGMDVWGQGTLVTVSS
VL: QSVLTQPPSASGTPGQRVTISCSGSSSNIGSNYVYWYQQLPGTAPKLLIYGNSNRPSGVPDRFSGSKSGTSASLAISGLRSEDEADYYCQSYDSSLSGSGVFGGGTKLTVLG
B5: CD38TM3 formatted into human IgG1 (antibody, V domains shown)
VH: QVQLVQSGAEVKKPGESLKISCKGSGYSFTSYWIGWVRQMPGKGLEWMGIIYPGDSDTRYSPSFQGQVTISADKSISTAYLQWSSLKASDTAMYYCARGPSTGFWSGNYFDYWGQGTLVTVSS
VL: QTVVTQEPSLTVSPGETVTLTCASSTGAVTSGFYPNWFQQKPGQAPRALIYATNNKYSWTPARFSGSLLGDKAALTLSRVQPEDEADYYCLVYYDGAWVFGGGTKLTVLG
B6: CD38TM6 formatted into human IgG1 (antibody, V domains shown)
VH: EVQLLESGGGLVQPGGSLRLSCAASGFTFDDYGMTWVRQAPGKGLEWVSGINWNGGSTGYADSVKGRFTISRDNSKNTLYLQMNSLRAEDTAVYYCARGGLFHDSSGYYFGHWGQGTLVTVSS
VL: QSVLTQPPSASGTPGQRVTISCSGSSSNIGNSYVSWYQQLPGTAPKLLIYRNNQRPSGVPDRFSGSKSGTSASLAISGLRSEDEADYYCSAWDDNLSVLFGGGTKLTVL

Assays:
[1] = target: recombinant cynomolgus monkey CD38 (purified, plate-coated) (cynomolgus, UniProt Q5VAN0 44-301); assay: ELISA, plate-coated recombinant cynomolgus CD38, scFv-SLTA fusion titrated
[2] = target: recombinant human CD38 (purified, plate-coated) (human, UniProt P28907 43-300); assay: ELISA, plate-coated recombinant CD38, scFv-SLTA fusion titrated
[3] = target: T1, human CD38 on human multiple myeloma MOLP-8 cells (human, UniProt P28907 1-300); assay: cell-based or functional assay
[4] = target: T1, human CD38 on human multiple myeloma …; assay: flow cytometry titration of IgG1 on MOLP-8 cells, nonlinear fit
[5] = target: cynomolgus CD38 on cells expressing recombinant cynomolgus CD38 (cynomolgus, UniProt Q5VAN0 1-301)
[6] = target: T1, human CD38 on human multiple myeloma …; assay: flow cytometry, IgG1 at 100 nM on MOLP-8 cells, MFI over secondary-only control

Row | Binder | binding result [1] | Kd [2] | % ADCC (mean) [3] | % CDC (mean) [3] | Kd [4] | FOB (fold-over-background of MFI) [5] | FOB (fold-over-background of MFI) [6]
1 | B1 | no binding | 7.7 ng/mL | – | – | – | – | –
2 | B2 | – | – | 35.2% | 4.7% | 34 nM | 104 fold over background | 550 fold over background
3 | B3 | – | – | – | – | – | 272 fold over background | –
4 | B4 | – | – | 29% | 15% | 32 nM | – | –
5 | B5 | – | – | – | – | – | 528 fold over background | –
6 | B6 | – | – | 50.4% | 34.3% | 4.6 nM | 176 fold over background | 104 fold over background
